Measured values published in patent publication US20240293570A1 (priority 2021, published 2024).
Where two headings read alike, the source gives them in different places.

Columns and labels:
[1] = Naked antibody content of antibody-drug conjugates by hydrophobic interaction chromatography (HIC); format: physicochemical; details: ADC with Her2 antibody
Protocol: The content of naked antibodies in the antibody-drug conjugate was tested using hydrophobic interaction chromatography (HIC). A Biocore HIC-Butyl chromatographic column (4.6×150 mm, 5 μm) was used. The mobile phase A was a 100 mM phosphate aqueous solution containing 2 M ammonium sulfate (pH 7.0), and the mobile phase B was a 100 mM phosphate aqueous solution (pH 7.0): isopropanol=80:20 (V/V). Samples of 50 μg and 10 μl were injected. The mobile phase A at the flow rate of 1 mL/min ran at 100% for 3 minutes. Within 3-25 minutes, the mobile phase B ran from […] to 100%, while the mobile phase B decreased to 0% at 25.1 and ran to 30 minutes. […] The naked antibody content of the antibody-drug conjugate was calculated using an area normalization method based on the retention time of a naked antibody peak located by the antibody of the antibody-drug conjugate.

[2] = Stability (placement) test of ADCs at 40° C. in dark for 14 days, DAR and polymer content; format: physicochemical
Protocol: (§1) Polymers (high molecular components) of the antibody-drug conjugates were tested using molecular exclusion high-performance liquid chromatography (SE-HPLC). A Biocore SEC chromatographic column (7.8×300 mm, […]) was used, and the mobile phase was 50 mM phosphate containing 300 mM sodium chloride (pH 6.8), with a flow rate of 0.5 mL/min. Samples of […] and 10 μl were injected. […] The polymer content of an antibody-drug conjugate was calculated using an area normalization method.
(§2) A drug-antibody conjugating ratio (also known as drug-antibody ratio, abbreviated as DAR) of the antibody-drug conjugate was tested using reversed-phase high-performance liquid chromatography-mass chromatography (RP-HPLC-MS). The ADC sample was diluted with 50 mmol/L Tris buffer (pH 8.0) to 1 mg/ml. A fresh dithiothreitol (DTT) stock solution was added to achieve a final DTT concentration of 50 mmol/L. Incubation was performed at 37° C. for 30 minutes. A PLRP-S chromatographic column (1000 Å pores, 2.1×50 mm, 5) μm) was used, and the column temperature was 70° C. The flow rate was 0.25 mL/min. […] of sample was injected; the mobile phase A was an aqueous solution of 0.1% formic acid (V/V) and 0.025% trifluoroacetic acid (V/V), and the mobile phase B was an acetonitrile solution of 0.1% formic acid (V/V) and 0.025% trifluoroacetic acid (V/V); the running time was 0-3 minutes, where 27% of mobile phase B ran for 3 minutes, and the mobile phase B ran from 27% to 49% within 3-25 minutes, from 49% to 95% within 25-26 minutes, at 95% within […], from 95% to 27% within 30-31.5 minutes, and at 27% for 31.5-45 minutes. […] Mass spectrometry drying gas was at a temperature of 350° C. and a flow rate of 7.0 L/min, the pressure of an atomizer was 40 psi, capillary voltage was positive 3000V and negative 3000V, and the mass range was 500-1600 m/z. The molecular weight of each mass spectrometry peak (ranging from 20000 to 70000) was calculated by deconvolution and compared with light and heavy chain molecular weights of un-conjugated antibodies to calculate a drug load at each peak, so as to determine the load of a corresponding ultraviolet peak. Area percentages of heavy and light chain ultraviolet peaks were calculated through integration, and a weighted average DAR of the antibody-drug conjugate was calculated by combining the area percentages with the drug load distribution of each peak.
Stability testing method: The stability of the obtained ADCs was tested for 14 days. The ADCs were placed at 40° C. in dark. Sampling points were days 0, 7, and 14. The polymer content and DAR value of samples at different sampling points were tested according to the method in Experimental Example 1.

[3] = Polymer (high molecular component) content of antibody-drug conjugates by SE-HPLC; format: physicochemical; details: ADC with Her2 antibody
Protocol: as §1

[4] = format: physicochemical; details: ADC with Her2 antibody, RP-HPLC-MS
Protocol: as §2

| SMILES | Naked antibody content (%) [1] [%] | DAR ([2]; Day 0, 40° C. in dark) | Polymer content (%) ([2]; Day 0, 40° C. in dark) | DAR ([2]; Day 7, 40° C. in dark) | Polymer content (%) ([2]; Day 7, 40° C. in dark) | DAR ([2]; Day 14, 40° C. in dark) | Polymer content (%) ([2]; Day 14, 40° C. in dark) | Polymer content (%) [3] [%] | DAR [4] |
| --- | --- | --- | --- | --- | --- | --- | --- | --- | --- |
| C=C1C[C@@H]2CC[C@@]34C[C@H]5OC6C(O[C@H]7CC[C@H](CC(=O)C[C@@H]8[C@@H](OC)[C@@H](C[C@H](O)CNC(=O)CNC(=O)[C@H](Cc9ccccc9)NC(=O)CNC(=O)CNC(=O)CCOCCOCCN(CCOCCOCCC(=O)NCC(=O)NCC(=O)N[C@@H](Cc9ccccc9)C(=O)NCC(=O)NCOCC(=O)N[C@H]9CCc%10c(C)c(F)cc%11nc%12c(c9c%10%11)Cn9c-%12cc%10c(c9=O)COC(=O)[C@]%10(O)CC)C9CCC(NC(=O)CN%10CCOCCOCCOCCN(C(=O)CCCCCN%11C(=O)C=CC%11=O)CCOCCOCCOCC%10)CC9)O[C@H]8C[C@H]8O[C@@H](CC[C@@H]1O2)C[C@@H](C)C8=C)O[C@@H]7[C@@H]6O3)[C@H]5O4 (stereo partly drawn) [Example 19] | 5.22 | 3.92 | 1.53 | 3.91 | 1.56 | 3.87 | 1.49 | 1.53 | 3.92 |
| C=C1C[C@@H]2CC[C@@]34C[C@H]5OC6C(O[C@H]7CC[C@H](CC(=O)C[C@@H]8[C@@H](OC)[C@@H](C[C@H](O)CNC(=O)CNC(=O)[C@H](Cc9ccccc9)NC(=O)CNC(=O)CNC(=O)CCOCCOCCN(CCOCCOCCC(=O)NCC(=O)NCC(=O)N[C@@H](Cc9ccccc9)C(=O)NCC(=O)NCOCC(=O)N[C@H]9CCc%10c(C)c(F)cc%11nc%12c(c9c%10%11)Cn9c-%12cc%10c(c9=O)COC(=O)[C@]%10(O)CC)C9CCC(NC(=O)CN%10CCOCCOCCOCCN(C(=O)CCOCCOCCOCCOCCN%11C(=O)C=CC%11=O)CCOCCOCCOCC%10)CC9)O[C@H]8C[C@H]8O[C@@H](CC[C@@H]1O2)C[C@@H](C)C8=C)O[C@@H]7[C@@H]6O3)[C@H]5O4 (stereo partly drawn) [Example 20] | 4.23 | 3.85 | 1.48 | 3.87 | 1.50 | 3.89 | 1.43 | 1.48 | 3.85 |
| C=C1C[C@@H]2CC[C@@]34C[C@H]5OC6C(O[C@H]7CC[C@H](CC(=O)C[C@@H]8[C@@H](OC)[C@@H](C[C@H](O)CNC(=O)CNC(=O)[C@H](Cc9ccccc9)NC(=O)CNC(=O)CNC(=O)CN9CCOCCN(C(=O)CCN%10C(=O)C=CC%10=O)CCOCC9)O[C@H]8C[C@H]8O[C@@H](CC[C@@H]1O2)C[C@@H](C)C8=C)O[C@@H]7[C@@H]6O3)[C@H]5O4 [Example 21] | 2.56 | 4.08 | 0.87 | 4.06 | 0.90 | 4.10 | 0.88 | 0.87 | 4.08 |
| CCc1c2c(nc3ccc(O)cc13)-c1cc3c(c(=O)n1C2)CCC(=O)[C@@]3(CC)OC(=O)N(C)CCN(C)C(=O)COCNC(=O)CNC(=O)[C@H](Cc1ccccc1)NC(=O)CNC(=O)CNC(=O)CN1CCOCCN(C(=O)CCN2C(=O)C=CC2=O)CCOCC1 [Example 23] | 0.00 | 4.12 | 0.41 | 4.15 | 0.45 | 4.16 | 0.56 | 0.41 | 4.12 |
| C=C1C[C@@H]2CC[C@@]34C[C@H]5OC6C(C[C@H]7CC[C@H](CC(=O)C[C@@H]8[C@@H](OC)[C@@H](C[C@H](O)CNC(=O)CNC(=O)[C@H](Cc9ccccc9)NC(=O)CNC(=O)CNC(=O)CCC(=O)N9CCOCCN(C(=O)CCN%10C(=O)C=CC%10=O)CCOCC9)O[C@H]8C[C@H]8O[C@@H](CC[C@@H]1O2)C[C@@H](C)C8=C)O[C@@H]7[C@@H]6O3)[C@H]5O4 [Example 26] | 1.26 | 3.92 | 0.70 | 3.92 | 0.72 | 3.96 | 0.66 | 0.70 | 3.92 |
| CC[C@@]1(O)C(=O)OCc2c1cc1n(c2=O)Cc2c-1nc1cc(F)c(C)c3c1c2[C@@H](NC(=O)COCNC(=O)CNC(=O)CNC(=O)CNC(=O)CN1CCOCCN(C(=O)CCN2C(=O)C=CC2=O)CCOCC1)CC3 [Example 28] | 2.76 | 3.84 | 0.56 | 3.89 | 0.57 | 3.82 | 0.65 | 0.56 | 3.84 |
| C=C1C[C@@H]2CC[C@@]34C[C@H]5OC6C(O[C@H]7CC[C@H](CC(=O)C[C@@H]8[C@@H](OC)[C@@H](C[C@H](O)CNC(=O)CNC(=O)[C@H](Cc9ccccc9)NC(=O)CNC(=O)CNC(=O)CN9CCOCCOCCN(C(=O)CCCCCN%10C(=O)C=CC%10=O)CCOCCOCC9)O[C@H]8C[C@H]8O[C@@H](CC[C@@H]1O2)C[C@@H](C)C8=C)O[C@@H]7[C@@H]6O3)[C@H]5O4 [Example 39] | 0.00 | 4.30 | 0.90 | 4.32 | 0.92 | 4.30 | 0.98 | 0.90 | 4.30 |
| C=C1C[C@@H]2CC[C@@]34C[C@H]5OC6C(O[C@H]7CC[C@H](CC(=O)C[C@@H]8[C@@H](OC)[C@@H](C[C@H](O)CNC(=O)CNC(=O)[C@H](Cc9ccccc9)NC(=O)CNC(=O)CNC(=O)CN9CCOCCOCCN(C(=O)CCCC%10C(=O)C=CC%10=O)CCOCCOCC9)O[C@H]8C[C@H]8O[C@@H](CC[C@@H]1O2)C[C@@H](C)C8=C)O[C@@H]7[C@@H]6O3)[C@H]5O4 [Example 41] | 5.05 | 3.84 | 1.52 | 3.81 | 1.53 | 3.81 | 1.59 | 1.52 | 3.84 |
| C=C1C[C@@H]2CC[C@@]34C[C@H]5OC6C(O[C@H]7CC[C@H](CC(=O)C[C@@H]8[C@@H](OC)[C@@H](C[C@H](O)CNC(=O)CNC(=O)[C@H](Cc9ccccc9)NC(=O)CNC(=O)CN9CCOCCOCCN(C(=O)CCCC%10C(=O)C=CC%10=O)CCOCCOCC9)O[C@H]8C[C@H]8O[C@@H](CC[C@@H]1O2)C[C@@H](C)C8=C)O[C@@H]7[C@@H]6O3)[C@H]5O4 [Example 42] | 1.06 | 4.12 | 1.25 | 4.11 | 1.28 | 4.08 | 1.26 | 1.25 | 4.12 |
